These results are taken from PMC3979344 (Virology, 2013).

Assay [1] concerns the target HVEM(200t), soluble herpesvirus entry mediator (UniProt Q92956). In words: SPR. Background: In SPR one partner is held on a chip, and binding of the other changes the refractive index at the surface.
The target of assay [2] is T1, nectin-1(346t), soluble nectin-1 (UniProt Q15223 31-346).
T1 sequence (looked up): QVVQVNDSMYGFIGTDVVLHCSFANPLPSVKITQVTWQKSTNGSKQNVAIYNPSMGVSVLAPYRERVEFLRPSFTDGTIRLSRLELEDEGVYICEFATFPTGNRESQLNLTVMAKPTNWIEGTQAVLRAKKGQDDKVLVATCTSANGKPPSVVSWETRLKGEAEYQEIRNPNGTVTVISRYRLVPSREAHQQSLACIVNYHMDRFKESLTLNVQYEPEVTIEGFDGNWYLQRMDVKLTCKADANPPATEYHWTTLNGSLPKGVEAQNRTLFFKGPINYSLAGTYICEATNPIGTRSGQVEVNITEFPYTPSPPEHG
In words: SPR.

A word on the Kd: it is the free concentration of one partner at which half of the binding sites on the other are occupied at equilibrium, for simple one-to-one binding. A low value points to a tighter complex. In assay [1], “gD(3C-38C)306t (from UniProt Q69091 26-331) (domain or fragment)” gave a dissociation constant (Kd) of 2390 nM.

B1: gD(23-285t) (domain or fragment)
chain: PVLDQLTDPPGVRRVYHIQAGLPDPFQPPSLPITVYYAVLERACRSVLLNAPSEAPQIVRGASEDVRKQPYNLTIAWFRMGGNCAIPITVMEYTECSYNKSLGACPIRTQPRWNYYDSFSAVSEDNLGFLMHAPAFETAGTYLRLVKINDWTEITQFILEHRAKGSCKYALPLRIPPSACLSPQAYQQGVTVDSIGMLPRFIPENQRTVAVYSLKIAGWHGPKAPYTSTLLPPELSETPNATQPELAPEDPEDSALLEDPVGT
Turning to B1, in assay [2], the Kd was 65.7 nM.

B2: gD(306t), soluble ectodomain of HSV-1 glycoprotein D (domain or fragment)
chain: KYALADASLKMADPNRFRGKDLPVLDQLTDPPGVRRVYHIQAGLPDPFQPPSLPITVYYAVLERACRSVLLNAPSEAPQIVRGASEDVRKQPYNLTIAWFRMGGNCAIPITVMEYTECSYNKSLGACPIRTQPRWNYYDSFSAVSEDNLGFLMHAPAFETAGTYLRLVKINDWTEITQFILEHRAKGSCKYALPLRIPPSACLSPQAYQQGVTVDSIGMLPRFIPENQRTVAVYSLKIAGWHGPKAPYTSTLLPPELSETPNATQPELAPEDPEDSALLEDPVGTVAPQIPPNWHIPSIQDAATPY
With B2, the Kd in assay [2] was 1740 nM.

B3: gD(285t) (domain or fragment)
chain: KYALADASLKMADPNRFRGKDLPVLDQLTDPPGVRRVYHIQAGLPDPFQPPSLPITVYYAVLERACRSVLLNAPSEAPQIVRGASEDVRKQPYNLTIAWFRMGGNCAIPITVMEYTECSYNKSLGACPIRTQPRWNYYDSFSAVSEDNLGFLMHAPAFETAGTYLRLVKINDWTEITQFILEHRAKGSCKYALPLRIPPSACLSPQAYQQGVTVDSIGMLPRFIPENQRTVAVYSLKIAGWHGPKAPYTSTLLPPELSETPNATQPELAPEDPEDSALLEDPVGT
In the case of B3, in assay [2], the dissociation constant Kd came to 71.3 nM.
